# Substitutions are numbered along the chain they refer to. Read-outs that look alike come from different tables or passages of the source.
# B1: TY21587 (antibody, V domains shown)
# VH: EVQLVESGGGLVQPGGSLRLSCAASGFTFSDYGIHWVRQAPGKGLEWIGEIYHSGSTYYSPSLKSRVTISRDNSKNTLYLQLNSLRAEDTAVYYCARDVAPGSSGYYDGFDFWGQGTLVTVSS
# VL: DIQLTQSPSSLSASVGDRVTITCRASQGIGSSLAWYQQKPGKAPKLLIYDASNRATGIPSRFSGSGSGTDFTLTISSLQPEDFATYYCQQYDQWPPWTFGQGTKVEIK
# notes: human IgG1 (hIgG1) from Fab hit B15722
# B2: YLGIG105FVGMG (receptor, Homo sapiens, UniProt P16410 36-161, looked up)
# CTLA4: KAMHVAQPAVVLASSRGIASFVCEYASPGKATEVRVTVLRQADSQVTEVCAATYMMGNELTFLDDSICTGTSSGNQVNLTIQGLRAMDTGLYICKVELMYPPPYFVGMGNGTQIYVIDPEPCPDSD
# B3: TY22402 (antibody, IgG1, V domains shown)
# VH: EVQLVESGGGLVQPGGSLRLSCAASGYSISSGYHWSWIRQAPGKGLEWLARIDWDDDKYYSTSLKSRLTISRDNSKNTLYLQLNSLRAEDTAVYYCARSYVYFDYWGQGTLVTVSS
# VL: EVGSYIVHHSDCDAFYPYCDSSGRSAGGGGSPLGLAGSGGSDIQLTQSPSSLSASVGDRVTITCRASQSVRGRFLAWYQQKPGKAPKLLIYDASNRATGIPSRFSGSGSGTDFTLTISSLQPEDFATYYCQQSSSWPPTFGQGTKVEIKR
# notes: IgG1; peptide fused to the N-terminus of the light chain of TY21580
# B4: TY22566 (antibody, IgG1, V domains shown)
# VH: B3 VH
# VL: EVGSYPNPASDCVPYYYACAYSGRSAGGGGSPLGLAGSGGSDIQLTQSPSSLSASVGDRVTITCRASQSVRGRFLAWYQQKPGKAPKLLIYDASNRATGIPSRFSGSGSGTDFTLTISSLQPEDFATYYCQQSSSWPPTFGQGTKVEIKR
# notes: IgG1
# B5: TY22775 (antibody, V domains shown)
# VH: B3 VH
# VL: EVGHSDCDAFYPYCDSSGRSAGGGGTPLGLAGSGGSDIQLTQSPSSLSASVGDRVTITCRASQSVRGRFLAWYQQKPGKAPKLLIYDASNRATGIPSRFSGSGSGTDFTLTISSLQPEDFATYYCQQSSSWPPTFGQGTKVEIKR
# B6: TY22864 (antibody, V domains shown)
# VH: B3 VH
# VL: DIQLTQSPSSLSASVGDRVTITCRASQSVRGRFLAWYQQKPGKAPKLLIYDASNRATGIPSRFSGSGSGTDFTLTISSLQPEDFATYYCQQSSSWPPTFGQGTKVEIKR
# B7: TY22871 (antibody, V domains shown)
# VH: B3 VH
# VL: B6 VL
# B8: TY22563 (antibody, IgG1, V domains shown)
# VH: B3 VH
# VL: B3 VL with I6Y, V7S, H8A, H9Y, S10P, D11A, A14S, F15H, D20Q
# notes: IgG1
# B9: TY22776 (antibody, V domains shown)
# VH: B3 VH
# VL: B5 VL with H4S, D8V, A9P, F10Y, P12Y, Y13A, D15A, S16Y
# B10: human CTLA4 mutant ADSQVT42TNDQMT displayed on yeast (receptor)
# chain: KAMHVAQPAVVLASSRGIASFVCEYASPGKATEVRVTVLRQTNDQMTEVCAATYMMGNELTFLDDSICTGTSSGNQVNLTIQGLRAMDTGLYICKVELMYPPPYYLGIGNGTQIYVIDPE
# notes: also called human CC' loop motif changed to the mouse motif
# B11: human CTLA4 mutant LGI106AAA displayed on yeast (receptor)
# chain: B10 chain with T42A, N43D, D44S, M46V, L106A, G107A, I108A
# How the values were obtained:
# [1] = molecular target: T1, full-length human CTLA4 expressed on cells (human, UniProt P16410 36-223); assay: flow cytometry blocking: HEK293F cells with human CTLA4, 100 nM antibody, then 100 nM CD86-Fc-Bio (blocked ligand); PBSA panel: Mean 10678, 12.2%
# T1 construct: whole, on cells; also called HEK293F/hCTLA-4 cells; HEK293F/hCTLA4 cells
# T1 sequence (looked up): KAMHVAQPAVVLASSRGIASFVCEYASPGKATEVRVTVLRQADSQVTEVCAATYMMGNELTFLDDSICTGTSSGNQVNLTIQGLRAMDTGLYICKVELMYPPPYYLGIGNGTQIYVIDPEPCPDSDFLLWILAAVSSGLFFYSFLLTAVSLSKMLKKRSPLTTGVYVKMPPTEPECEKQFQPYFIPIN
# Protocol: (§1) Antibodies were also tested for their ability to block binding of CTLA4 to its cognate ligands CD80 and CD86 by flow cytometry. The plasmid encoding full-length human CTLA4 was transiently expressed in HEK293F cells. Cells were washed with staining buffer (PBSA buffer including 1.76 mM KH₂PO₄, 10.14 mM Na₂HPO₄.12H₂O, 2.68 mM KCl, 136.89 mM NaCl and 1% BSA), and resuspended in staining buffer containing 100 nM test antibodies. […] Cells were washed once, and analyzed by CytoFlex flow cytometry.
# [2] = molecular target: T2, recombinant human CTLA4 fused with human Fc and His tag (human, UniProt P16410 36-162, limits assumed); assay: competition ELISA: plate-bound human CTLA4-Fc-His, biotinylated CD80 as blocked ligand
# T2 construct: Coated in the CD80 ELISA, biotinylated and in solution in the CD86 ELISA; also called biotinylated human CTLA4 fused with human FC and His tag
# T2 sequence (looked up): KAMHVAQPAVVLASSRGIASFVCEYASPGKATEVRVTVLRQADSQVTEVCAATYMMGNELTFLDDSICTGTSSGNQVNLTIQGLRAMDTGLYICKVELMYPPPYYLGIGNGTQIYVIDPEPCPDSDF
# Protocol: Antibodies were then tested for their ability to block binding of CTLA4 to its cognate ligands CD80 and CD86 by ELISA. […] Plates were blocked with PBS supplemented with 2% (w/v) skim milk at 37° C. for 1 hour. […] Plates were washed four times, and 100 μL HRP-neutravidin (1:1000) was added to each well and incubated at 37° C. for 1 hour. Plates were washed as previously described, and 50 μL TMB substrate solution was added and incubated at room temperature for 5 minutes before the reaction was stopped by 50 μL sulfate acid (2M).
# [3] = molecular target: T1, full-length human CTLA4 expressed on …; assay: flow cytometry, transfected HEK293F cells, antibody concentration not given
# Protocol: The affinities of the antibodies were also assessed against human and mouse CTLA4 transiently expressed on the surface of HEK293F cells (FIG. 2). Briefly, HEK293F cells were transfected with a plasmid expressing full-length human, monkey or mouse CTLA4 from a bicistronic IRES vector also encoding EGFP, and EGFP expression was used to identify the transfected cells. After 48 hours, the mammalian cell suspension (2×10⁵/well) was transferred to an Eppendorf tube, centrifuged, the supernatant was discarded, the cells were resuspended with 1 mL PBSA (to a density is 4×10⁶ cells/mL), and added to a 96 well plate. […] The cells were then washed once prior to analysis by flow cytometry (Beckman® CytoFlex).
# [4] = molecular target: T1, full-length human CTLA4 expressed on …; assay: flow cytometry blocking: HEK293F cells with human CTLA4, 100 nM antibody, then 100 nM CD80-Fc-Bio (blocked ligand); PBSA panel: Mean 157692, 26.3%
# Protocol: as §1
# human CD80 = molecular target: T3, human CD80 (human, UniProt P33681 35-242, limits assumed); assay: yeast-display flow cytometry, Normalized FACS Bound
# T3 construct: constructs not described; also called biotinylated CD80; CD80-Fc-Bio
# T3 sequence (looked up): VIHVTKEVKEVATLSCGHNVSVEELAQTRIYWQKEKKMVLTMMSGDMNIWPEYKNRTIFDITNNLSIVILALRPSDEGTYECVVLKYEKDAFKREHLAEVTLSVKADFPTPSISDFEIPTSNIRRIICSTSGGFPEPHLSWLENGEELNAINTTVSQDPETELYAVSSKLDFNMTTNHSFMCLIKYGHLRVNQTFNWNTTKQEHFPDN
# mouse CD86 = molecular target: T4, mouse CD86 (mouse, UniProt P42082 24-244, limits assumed); assay: as above
# T4 sequence (looked up): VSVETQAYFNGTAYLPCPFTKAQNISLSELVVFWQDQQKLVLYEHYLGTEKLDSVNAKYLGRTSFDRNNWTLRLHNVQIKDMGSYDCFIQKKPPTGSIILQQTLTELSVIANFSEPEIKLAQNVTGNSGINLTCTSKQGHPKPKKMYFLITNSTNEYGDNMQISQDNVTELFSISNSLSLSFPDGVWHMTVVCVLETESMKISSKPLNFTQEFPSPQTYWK
# human CD86 = molecular target: T5, human CD86 (human, UniProt P42081 24-247, limits assumed); assay: as above
# T5 construct: constructs not described; also called recombinant human CD86 fused with human Fc; CD86-Fc-Bio
# T5 sequence (looked up): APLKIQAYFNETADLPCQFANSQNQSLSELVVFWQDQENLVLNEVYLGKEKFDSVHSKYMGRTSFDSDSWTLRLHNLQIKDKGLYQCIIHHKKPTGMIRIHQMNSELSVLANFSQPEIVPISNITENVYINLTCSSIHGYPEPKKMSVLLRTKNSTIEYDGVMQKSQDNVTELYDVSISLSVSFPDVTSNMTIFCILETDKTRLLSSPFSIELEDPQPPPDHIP
# [5] = molecular target: T6, recombinant human CTLA4-Fc (human, UniProt P16410 36-162); assay: ELISA, coated human CTLA4-Fc (as in Example 8)
# T6 construct: also called human CTLA4 fused with human FC fragment; CTLA4-Fc (Sino Biological, 11159-H03H)
# T6 sequence (looked up): T2 sequence (looked up)
# Protocol: (§2) Plates were blocked with PBS supplemented with 3% non-fat milk at 37° C. for 1 hour. After washing, 100 μL of 3-fold serial dilutions of antibodies were added to each well. After incubation at 37° C. for 1 hour, plates were washed four times, and 100 μL HRP conjugated anti-human IgG (Fab specific) (1:6000 dilution) was added to each well. Plates were incubated at 37° C. for 1 hour, washed four times, and then 50 μL TMB substrate solution was added to each well, and the plate was incubated at room temperature. […] The EC₅₀ was evaluated by fitting the ELISA data using the asymmetrical sigmoidal (five-parameter logistic equation) model of GraphPad Prism 6 software.
# [6] = molecular target: T6, recombinant human CTLA4-Fc; assay: ELISA; EC50 divided by the EC50 of TY21580
# Protocol: as §2
# [7] = molecular target: T6, recombinant human CTLA4-Fc; assay: ELISA, coated human CTLA4-Fc (as in Example 8); remark: listed apart in the source
# Protocol: as §2
# [8] = molecular target: T6, recombinant human CTLA4-Fc; assay: ELISA; EC50 divided by the EC50 of TY21580; remark: listed apart in the source
# Protocol: as §2
# [9] = molecular target: T6, recombinant human CTLA4-Fc; assay: ELISA on plate-coated recombinant human CTLA4-Fc, detection with HRP anti-human IgG (Fab specific)
# Protocol: as §2
binder,measurement,setting,value
B1,% of cells in upper right quadrant (CD86-positive) in the presence of the antibody,[1],6.59%
same,Mean of the CD86 binding signal in the presence of the antibody,[1],5710
same,IC50 (read off the curve),[2],~30 nM
same,% of cells in upper right quadrant (Q2),[3],23.6%
same,% of cells in upper right quadrant (CD80-positive) in the presence of the antibody,[4],25.8%
same,Mean of the CD80 binding signal in the presence of the antibody,[4],85700
B2,binding result,human CD80,binds
same,binding result,mouse CD86,binds
same,binding result,human CD86,binds
B3,EC50,[5],54 nM
same,masking efficiency,[6],243
same,EC50,[7],116 nM
same,masking efficiency,[8],554
B4,EC50 (read off the curve),[9],~200 nM
B5,EC50,[5],37.3 nM
same,masking efficiency,[6],168
B6,EC50,[7],117 nM
B7,EC50,[7],88.1 nM
B8,EC50 (read off the curve),[9],~60 nM
B9,EC50,[5],65.9 nM
same,masking efficiency,[6],296
B10,binding result,human CD80,binds
same,binding result,mouse CD86,binds
same,binding result,human CD86,binds
B11,binding result,human CD80,binds
same,binding result,mouse CD86,binds
same,binding result,human CD86,binds

# Reference: patent US20190241662A1 (ADAGENE, published 2019)
